Reference: US20240336672A1

B1: Cilgavimab (antibody, V domains shown)
VH: EVQLVESGGGLVKPGGSLRLSCAASGFTFRDVWMSWVRQAPGKGLEWVGRIKSKIDGGTTDYAAPVKGRFTISRDDSKNTLYLQMNSLKTEDTAVYYCTTAGSYYYDTVGPGLPEGKFDYWGQGTLVTVSS
VL: not shown
B2: Adintrevimab (antibody, V domains shown)
VH: EVQLVESGGGLVKPGGSLRLSCAASGFTFSSYYMNWVRQAPGKGLEWVSSISEDGYSTYYPDSLKGRFTISRDSAKNSLYLQMNSLRADDTAVYYCARDFSGHTAWAGTGFEYWGQGTLVTVSS
VL: QSVLTQPPSVSGAPGQRITISCTGSSSNIGAGYDVHWYQQLPGTAPKLLIYGSSSRNSGVPDRFSGSKSGTSASLAITGLQAEDEADYYCQSYDSSLSVLYTFGTGTKVTVL

What was measured:
Settings in all cases: remark: other sources report otherwise
[1] = target: SARS-CoV-2 RBD (B.1.351) domain (SARS-CoV-2); assay: ELISA
[2] = target: SARS-CoV-2 RBD (B.1.351) domain (SARS-CoV-2); assay: ELISA; unit from paragraph 452, none printed in the heatmap
[3] = target: SARS-CoV-2 RBD (B.1.1.7) domain (SARS-CoV-2); assay: ELISA
[4] = target: SARS-CoV-2 RBD (P.1) domain (SARS-CoV-2); assay: ELISA
[5] = target: T1, SARS-CoV-2 Spike ectodomain (tri-S), Wuhan (SARS-CoV-2), P0DTC2; assay: ELISA
[6] = target: T1, SARS-CoV-2 Spike ectodomain (tri-S), …; assay: tri-S-ACE2 competition ELISA; unit from legend paragraph 348

Binder	OD405nm [1]	EC50 [2] [ng/mL]	OD405nm [3]	OD405nm [4]	OD405nm [5]	IC50 [6] [ng/mL]
B1	3.3	7	–	–	–	–
B2	3.4	7	3.4	3.4	3	200
